Results on six molecules are retold here after patent publication US6033882A, “Chiral synthesis of 2-hydroxy carboxylic acids with a dehydrogenase” (Genzyme Corporation, priority 1994, dated 2000).

The target of data set [1] is T1, Lactobacillus delbrueckii ssp. Bulgaricus R-2-hydroxy acid dehydrogenase (LB2HADH), wild type (H206), SEQ ID NO:1 (Lactobacillus delbrueckii, UniProt Q48534).
T1 construct: no tag mentioned
T1 sequence (Q48534 1-333): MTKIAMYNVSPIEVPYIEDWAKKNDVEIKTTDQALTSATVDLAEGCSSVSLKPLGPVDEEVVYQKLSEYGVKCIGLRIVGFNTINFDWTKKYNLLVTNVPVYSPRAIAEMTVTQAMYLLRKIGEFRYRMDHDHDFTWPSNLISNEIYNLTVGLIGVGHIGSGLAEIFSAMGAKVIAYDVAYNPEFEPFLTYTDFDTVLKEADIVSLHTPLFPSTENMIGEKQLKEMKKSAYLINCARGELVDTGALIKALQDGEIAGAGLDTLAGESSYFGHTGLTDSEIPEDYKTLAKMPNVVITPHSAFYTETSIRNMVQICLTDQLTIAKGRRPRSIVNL
Description: Steady-state kinetics of 2-keto acid reduction, followed by NADH oxidation. Type of data set: biochemical. The text has this: Since 1950, a number of workers have investigated the reduction of 2-oxo carboxylic acids catalysed by R-hydroxy acid dehydrogenases. For these studies, enzymes isolated from a variety of bacte rial sources have bee n employed. For a given 2-oxo acid, a given enzyme activity may be examined by UV spectroscopy and quantified with the Michaelis constant, Km, and the catalytic turnover, kcat.
The two compartment model for the binding pocket of the enzyme is illustrated in accompanying FIG. 1.
The substrate specificity of the purified enzyme was established by following the kinetics of reduction of a variety of 2-ketoacids (see Table 2 above).
(The steady-state kinetic constants of LB2HADH and H206Q in Table 6 below were obtained using standard stopped flow measurements.)

Data set [2] concerns the target T2, Lactobacillus delbrueckii ssp. Bulgaricus R-2-hydroxy acid dehydrogenase (LB2HADH) variant H206Q (Q206 mutant, Histidine 206 replaced by glutamine) (Lactobacillus delbrueckii, UniProt Q48534, H207Q).
T2 construct: no tag mentioned
T2 sequence (Q48534 1-333 H207Q): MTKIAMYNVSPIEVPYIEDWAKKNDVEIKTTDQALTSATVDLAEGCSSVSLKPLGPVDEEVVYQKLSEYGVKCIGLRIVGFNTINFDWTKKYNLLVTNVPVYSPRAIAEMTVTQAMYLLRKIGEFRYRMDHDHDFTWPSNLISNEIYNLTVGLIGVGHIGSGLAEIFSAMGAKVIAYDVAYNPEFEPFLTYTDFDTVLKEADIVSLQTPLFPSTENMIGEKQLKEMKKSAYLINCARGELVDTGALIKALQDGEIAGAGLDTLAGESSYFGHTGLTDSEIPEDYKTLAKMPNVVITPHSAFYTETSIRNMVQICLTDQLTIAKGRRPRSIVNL
The description is as above. Type of data set: biochemical. As to the method:
Glutamine 206 variant of LB2HADH:
A site-directed mutant was prepared from pGIN113 (Bernard, N., et al, Eur. J. Biochem., (1994), 224, 439-446) using a mutagenic oligonucleotide:
and the Promega "altered sites mutagenesis" kit. The enzyme was purified as for the wild type.
The vQ206 /vwt was 45 at 70 mM substrate.
The results are illustrated in accompanying FIG. 2, the Vmax values for H206Q being divided by 10 to obtain a clearer representation of comparative performance. […] (The steady-state kinetic constants of LB2HADH and H206Q in Table 6 below were obtained using standard stopped flow measurements.)

Substrate in data set [3]: NC(=O)C1=CN([C@@H]2O[C@H](COP(=O)(O)OP(=O)(O)OC[C@H]3O[C@@H](n4cnc5c(N)ncnc54)[C@H](O)[C@@H]3O)[C@@H](O)[C@H]2O)C=CC1
Description: purified protein, by the assay type. The following applies: other: pH 5.5, stopped flow.

Substrate in data set [4]: O=C(O)C(=O)CCc1ccccc1
Description: purified protein, by the assay type. Type of data set: biochemical, Lactobacillus delbrueckii ssp. Bulgaricus. The settings on record: other: pH 7.5; [NADH] = 0.2 mM; pH 7.5.

Substrate in data set [5]: CCCC(=O)C(=O)O
Description: purified protein, by the assay type. Format: biochemical, Lactobacillus delbrueckii ssp. Bulgaricus. The following applies: other: pH 7.5; [NADH] = 0.2 mM; pH 7.5.

Substrate in data set [6]: CCC(=O)C(=O)O
Description: purified protein, by the assay type. Format: biochemical, Lactobacillus delbrueckii ssp. Bulgaricus. The following applies: other: pH 7.5; [NADH] = 0.2 mM; pH 7.5.

Substrate in data set [7]: CC(=O)C(=O)O
Description: purified protein, by the assay type. Type of data set: biochemical, Lactobacillus delbrueckii ssp. Bulgaricus. The settings on record: other: pH 7.5; [NADH] = 0.2 mM; pH 7.5.

Substrate in data set [8]: CC(C)C(=O)C(=O)O
Description: purified protein, by the assay type. Type of data set: biochemical, Lactobacillus delbrueckii ssp. Bulgaricus. The settings on record: other: pH 7.5; [NADH] = 0.2 mM; pH 7.5.

Substrate in data set [9]: CC(C)CC(=O)C(=O)O
Description: purified protein, by the assay type. Format: biochemical, Lactobacillus delbrueckii ssp. Bulgaricus.

Substrate in data set [10]: CCCCC(=O)C(=O)O
Description: purified protein, by the assay type. Format: biochemical, Lactobacillus delbrueckii ssp. Bulgaricus. The following applies: other: pH 7.5; [NADH] = 0.2 mM; pH 7.5.

Substrate in data set [11]: O=C(O)C(=O)CCC1CCCC1
Description: purified protein, by the assay type. Format: biochemical, Lactobacillus delbrueckii ssp. Bulgaricus.

Setting [12] is: other: pH 5.0, stopped flow, pH 5.0.
[13] abbreviates: other: pH 5.5, stopped flow, pH 5.5.
Setting [14] is: other: pH 6.0, stopped flow, pH 6.0.
[15] abbreviates: other: pH 6.5, stopped flow, pH 6.5.
Setting [16] is: other: pH 7.5, [NADH] = 0.2 mM, pH 7.5.

Where two headings read alike, the source gives them in different places.

With `O=C(O)C(=O)Cc1ccccc1` [phenylpyruvate], the Km in [1] (pH 7.5, [NADH] = 0.2 mM, read-out: Km (KM (app): substrate concentration for 0.5 Vmax)) stood at 31 µM.

Regarding `O=C(O)C(=O)CCc1ccccc1` [benzylpyruvate, 2-oxo-4-phenyl butanoate], the “Vm (VM (app): turnover at optimal substrate concentration)” value in data set [1] (pH 7.5, [NADH] = 0.2 mM) was 51 s⁻¹.

With `CC(=O)C(=O)O` [pyruvate], in data set [1] (pH 7.5, [NADH] = 0.2 mM), the “Vm (VM (app): turnover at optimal substrate concentration)” value is 48 s⁻¹.

Consider `O=C(O)C(=O)CCC1CCCC1` [cyclopentylmethyl, 4-cyclopentyl-2-keto-butanoate], for which the Ki in data set [1] (substrate inhibition, wild type, read-out: Ki (substrate)) was 2 mM; in data set [2] (read-out: Ki (substrate), substrate inhibition, Q206 mutant), more than 100 mM.

With `CC(C)CC(=O)C(=O)O` [ketoisocaproate, 4-methyl-2-oxo-pentanoic acid], the Ki turned out to be 0.24 mM in data set [1] (pH 5.5, stopped flow, read-out: Ki KIC); 0.31 mM in data set [1] (pH 6.0, stopped flow, read-out: Ki KIC); 3.5 mM in data set [2] (read-out: Ki KIC, pH 5.0, stopped flow); 8.1 mM in [2] (read-out: Ki KIC, pH 5.5, stopped flow); 5.8 mM in data set [2] (read-out: Ki KIC, pH 6.0, stopped flow); 7.6 mM in [2] (read-out: Ki KIC, pH 6.5, stopped flow). In data set [1] (pH 6), this molecule returned a Vm/KM of 5e+06 M⁻¹ s⁻¹. The “Vm (VM (app): turnover at optimal substrate concentration)” value in data set [1] (pH 7.5, [NADH] = 0.2 mM) worked out at 20 s⁻¹.

B1: Lactobacillus delbrueckii ssp. Bulgaricus R-2-hydroxy acid dehydrogenase (LB2HADH), wild type (H206), SEQ ID NO:1 (Lactobacillus delbrueckii) (protein)
chain: MTKIAMYNVSPIEVPYIEDWAKKNDVEIKTTDQALTSATVDLAEGCSSVSLKPLGPVDEEVVYQKLSEYGVKCIGLRIVGFNTINFDWTKKYNLLVTNVPVYSPRAIAEMTVTQAMYLLRKIGEFRYRMDHDHDFTWPSNLISNEIYNLTVGLIGVGHIGSGLAEIFSAMGAKVIAYDVAYNPEFEPFLTYTDFDTVLKEADIVSLHTPLFPSTENMIGEKQLKEMKKSAYLINCARGELVDTGALIKALQDGEIAGAGLDTLAGESSYFGHTGLTDSEIPEDYKTLAKMPNVVITPHSAFYTETSIRNMVQICLTDQLTIAKGRRPRSIVNL
notes: no tag mentioned
For B1, the Km in data set [3] came to 15 µM; in [4], 36 µM; in [5], 57 µM; in data set [6], 1700 µM; in data set [7], 20000 µM; in data set [8] it was 20000 µM. Moreover, the Km in data set [9] (setting [12]) stood at 25 µM; in [9] (setting [13]), 30 µM; in data set [9] (setting [14]), 50 µM; in data set [9] (setting [15]) it was 15 µM; in data set [9] (setting [16]) it was 22 µM; in data set [10], 20 µM. For the same molecule, the Km is 8 µM in data set [11] (other: 0.2 mM NADH, wild type) and 10 µM in data set [11] (setting [16]). The kcat/Km in data set [4] came to 1.4e+06 M⁻¹ s⁻¹; in data set [5], 330000 M⁻¹ s⁻¹; in [6] it was 28000 M⁻¹ s⁻¹; in data set [9] (setting [12]), 7e+06 M⁻¹ s⁻¹; in data set [9] (setting [13]), 8e+06 M⁻¹ s⁻¹; in data set [9] (setting [14]) it was 5e+06 M⁻¹ s⁻¹. The kcat/Km in data set [9] (setting [15]) amounted to 5e+06 M⁻¹ s⁻¹; in data set [9] (setting [16]), 910000 M⁻¹ s⁻¹; in data set [10], 650000 M⁻¹ s⁻¹; in [11] (setting [16]), 2.8e+06 M⁻¹ s⁻¹. The kcat in data set [9] (setting [12]) amounted to 170 s⁻¹; in data set [9] (setting [13]) it was 240 s⁻¹; in [9] (setting [14]), 245 s⁻¹; in data set [9] (setting [15]) it was 75 s⁻¹; in data set [11] (other: 0.2 mM NADH, wild type) it was 25 s⁻¹.

The term kcat/Km denotes the turnover number divided by the Michaelis constant. As usually defined, the kcat is the maximal rate divided by the concentration of active sites.
